Experimental data: patent publication US20190060324A1, “POLYNUCLEOTIDE-POLY(DIOL) CONJUGATES, PROCESS OF PREPARATION AND USES THEREOF” (THE ROYAL INSTITUTION FOR THE ADVANCEMENT OF …, priority 2014, published 2019)

What was measured:
[1] = Dynamic light scattering of DNA-conjugate micelles (hydrodynamic radius, self-assembly); format: physicochemical; conditions: 25° C.; for self-assembly / scattering by DLS: 10 μM in magnesium containing (TAMg) buffer; for Single-stranded Rh (hydrodynamic radius by DLS): 10 μM in TAMg buffer; for Single-stranded Rh (hydrodynamic radius by DLS) / Double-stranded Rh (hydrodynamic radius by DLS): mean of at least triplicate ± SD
Protocol: The conjugates described herein can be further characterized with regard to their self-assembly behavior. To probe the self-assembly in solution, dynamic light scattering (DLS) was used to determine the presence, and hydrodynamic radius, of micellar aggregates.
Dynamic Light Scattering (DLS) experiments were carried out using a DynaPro™ Instrument from Wyatt Technology. A cumulants fit model was used to confirm the presence and determine the size of a monomodal population of micellar aggregates. Sterile water and TAMg buffer were filtered using a 0.45 μm nylon syringe filter before use for DLS sample preparation. All measurements were carried out at 25° C.
This size correlates with DNA-based spherical micelles and is consistent with the tight packing of the HE chains in a hydrophobic core with a charged corona made up of DNA.
To investigate the effect of block pattern on the amphiphilic self-assembly in solution, DLS measurements were carried out for the HE/HEG series. Samples were annealed in TAMg buffer at 10 μM, and measured at 25° C. […] Furthermore, the effect of the positioning of the blocks with respect to the oligonucleotide portion also appears to be a major factor in the self-assembly: the terminal HE6 results in micellization, whereas a central HE6 block prevents aggregation.

[2] = Fluorescence of encapsulated Nile Red; format: physicochemical; conditions: conjugate 10 μM in TAMg, excitation 535 nm
Protocol: DNA-conjugates (10 μM) in TAMg buffer (60 μL) were thermally annealed (95 to 4° C., 4 hours). The samples were transferred to glass vials and 1.5 μL of Nile Red solution ([…], acetone) was added, to give a final Nile Red concentration of 2.5 μM. The samples were vortexed briefly, sealed and incubated overnight at room temperature in the absence of light. Fluorescence spectra were recorded at room temperature in a 50 μL quartz cuvette using an excitation wavelength of 535 nm, and monitoring emission between 560 and 750 nm, with excitation and emission slit widths both set at 10 nm.
The sequence-specific self-assembly was also assessed using encapsulation of Nile Red (FIG. 5). In this case a small increase in fluorescence was seen as the block size increased from one to three HE units, consistent with a degree of intramolecular collapse of adjacent HE units, generating progressively larger hydrophobic domains as the block size increases, akin to beads on a string. […] A small, but repeatedly measurable, […] of the maximum emission from the bola-amphiphile (640 nm) with respect to the linear amphiphile (645 nm) was also observed, which is indicative of Nile Red in a more polar environment P. Greenspan, S. D. Fowler, J. Lipid Res. 1985, 26, 781-789). […]

[3] = BKM120 loading of HE12-DNA micelles by RP-HPLC and UV-Vis; format: physicochemical; conditions: HPLC peak areas, standard curves
Protocol: BKM120 was prepared as a 10 mM working solution in chloroform. Loading of the structures was achieved by adding 20 μL of BKM120 to a glass vial, followed by solvent evaporation in open air to achieve a thin drug film. HE12-DNA micelles were pre-assembled in 1×TAMg (100 μL at […]) and subsequently added to the drug film. The final solution was 100 μL with excess BKM120 (2 mM). The mixture was vortexed heavily to allow re-suspension of the drug molecules, and was incubated overnight at room temperature. Alternatively, drug loading could also be obtained by a different method. […]
RP-HPLC and UV-Vis spectroscopy were used to determine the amount of BKM120 loaded in the DNA micelles, For HPLC, 60 μL of the purified supernatant was injected into a Hamilton PRP-1 5 μm 100 Å 2.1×150 mm column. […] The products were also detected using a drug-only channel at 320 nm (BKM 120 maximum absorption peak).
For UV-Vis spectroscopy experiments, 20 μL of the purified supernatant was mixed with 80 μL of DMSO, and the absorbance (200 nm-500 nm) was measured. The presence of BKM120 was monitored by the absorbance at 320 nm using a Biotek Synergy HT well-plate spectrometer. […]
The amount of incorporated BKM 120 was calculated by measuring HPLC peak areas of BKM 120 and DNA. […]

[4] = test system: complement strand (Acomp); experiment: Thermal denaturation of duplexes with complement strand by UV absorption; native PAGE; format: physicochemical; conditions: between DNA and HE12-DNA, duplex with Acomp 2.5 μM in TAMg
Protocol: The hybridization of the DNA amphiphiles to their complement strands was confirmed by measurement of the thermal denaturation of the duplexes by UV absorption. For each experiment equimolar amounts of DNA amphiphile and complement strand (Acomp, see Table 1) were combined in TAMg buffer to give a final volume of 150 μL with a duplex concentration of 2.5 μM. Samples were thermally annealed (95 to 4° C., 4 hours) before transfer to a quartz cuvette. Absorbance at 260 nm was monitored over the appropriate temperature range. Typical sigmoidal melting curves were obtained for the hybridization of the complementary strand Acomp to DNA control, discrete (HE-HEG)6-DNA and HE12-DNA micelles. […] Native Polyacrylamide Gel Electrophoresis (PAGE) was carried out at room temperature for 2 hours at a constant voltage of 250V. Sample loading was 0.01 OD260 DNA per lane. Single-stranded samples were annealed (95 to 4° C., 4 hours) prior to loading on the gel to promote uniform assembly. Double-stranded samples were similarly annealed (with Acomp, see Table 1) to provide 25 μL of 10 μM duplex in 1×TAMg. The DNA bands were visualized by incubation with GelRedTM. Thermal denaturation and gel electrophoresis concluded that all of the HEx-DNA molecules retained their ability to hybridize to a complementary DNA strand, highlighting the orthogonal nature of these differing modes of intermolecular self-assembly. […]

[5] = test system: primary B-CLL lymphocytes; experiment: Cleaved caspase-3 apoptosis assay; format: cell-based, human; conditions: primary patient CLL cells, 24 and 48 h
Protocol: Primary B-CLL lymphocytes were maintained in RPMI complemented with 10% fetal bovine serum (FBS). BMS2 stromal cell line were maintained in Dulbecco's modified eagle medium (DMEM) supplemented with 10% FBS.BMS2 cells were plate at 70×10^4 cells/ml in 24 well plates before coculture with primary B-CLL lymphocytes and incubate at 37° C., 5% C02.
For apoptosis assays, 3×10^6 B-CLL lymphocytes were plated in the presence or absence of stromal cell (BMS2) and incubate 1 h at 37° C., 5% CO2. Cells were then treated with vehicle, micelle, BKM120, and micelle encapsulated BKM120 for 24 and 48 h.
Cells were harvested, washed with PBS then fixed 10 min with 1% paraformaldehyde. After washing, cells were permeabilized and nonspecific sites blocked in PBS containing 3% FBS and 0.01% triton X100. Cells were then incubated 1 h with an anti-caspase-3 FITC conjugated antibody then analyzed with a FACSCalibur flow cytometer. (See FIG. 16).

[6] = test system: HeLa cells (human cervical cancer); experiment: MTS cytotoxicity assay; format: cell-based; conditions: quadruplicate, read-out: inhibitory concentration (IC50), MTS assay
Protocol: The cytotoxicity of micelles was assessed using the CellTiter96 kit from Promega according to the manufacturer's instructions. Briefly, HeLa cells (human cervical cancer) were seeded at a density of 10000 cells per well in a 96-well plate in DMEM media (Invitrogen) supplemented with 10% FBS and AB/AM. […] Cells were incubated for 24, 48, and 72 h in 5% CO2 at 37° C. After the incubation period, the MTS reagent was added to each well and further incubated for 2 h in 5% CO2 at 37° C. Subsequently, 96-well plates were allowed to equilibrate at room temperature and the absorbance was read at 490 nm using a BioTek Epoch micro-plate reader. All quantifications were done using GraphPad Prism 5 software.

Compound | self-assembly / scattering by DLS [1] | Single-stranded Rh (hydrodynamic radius by DLS) [1] | Double-stranded Rh (hydrodynamic radius by DLS) [1] | other results
(HE-HEG)6-DNA: DHDHDHDHDHDHTTTTTCAGTTGACCATATA; D dodecane-diol, H hexaethyloxy glycol residues (dodecane-diol and hexaethylene glycol units conjugated, chemistry not fully specified) | did not exhibit self-assembly |  |  | 
HE6-HEG6-DNA: DDDDDDHHHHHHTTTTTCAGTTGACCATATA; D dodecane-diol, H hexaethyloxy glycol residues (dodecane-diol and hexaethylene glycol units conjugated, chemistry not fully specified) | strong scattering | 9.7±0.9 nm | 10.0 ± 0.2 nm | maximum emission of encapsulated Nile Red [2]: 645 nm; Single-stranded Rh (hydrodynamic radius by DLS) ([1]; listed as HE6-HEG6): 9.7 ± 0.1 nm
HE6-DNA: DDDDDDTTTTTCAGTTGACCATATA; D = residue from DMT-dodecane-diol amidite (dodecane-diol (HE) units conjugated, chemistry not fully specified) | strong scattering | 6.5±0.4 nm | 5.6 ± 0.1 nm | Single-stranded Rh (hydrodynamic radius by DLS) ([1]; listed as HE6): 6.5 ± 0.4 nm
(HE2-HEG2)3-DNA: DDHHDDHHDDHHTTTTTCAGTTGACCATATA; D dodecane-diol, H hexaethyloxy glycol residues (dodecane-diol and hexaethylene glycol units conjugated, chemistry not fully specified) | did not exhibit self-assembly |  |  | 
HE12-DNA: DDDDDDDDDDDDTTTTTCAGTTGACCATATA; D = residue from DMT-dodecane-diol amidite (dodecane-diol (HE) units conjugated, chemistry not fully specified) |  | 11.3±0.1 nm | 11.3 ± 0.1 nm | BKM120 molecules incorporated per HE12-DNA conjugate unit [3]: 8; Single-stranded Rh (hydrodynamic radius by DLS) ([1]; listed as HE12): 11.3 ± 0.7 nm; change in melting temperature [4]: 3 °C
HEG6-HE6-DNA: HHHHHHDDDDDDTTTTTCAGTTGACCATATA; D dodecane-diol, H hexaethyloxy glycol residues (dodecane-diol and hexaethylene glycol units conjugated, chemistry not fully specified) |  |  |  | maximum emission of encapsulated Nile Red [2]: 640 nm
(HE3-HEG3)2-DNA: DDDHHHDDDHHHTTTTTCAGTTGACCATATA; D dodecane-diol, H hexaethyloxy glycol residues (dodecane-diol and hexaethylene glycol units conjugated, chemistry not fully specified) | did not exhibit self-assembly |  |  | 
Nc1cc(C(F)(F)F)c(-c2cc(N3CCOCC3)nc(N3CCOCC3)n2)cn1 [BKM120] |  |  |  | amount of caspase (cleaved caspase-3) [5]: same amount; IC50 [6]: 2000 nM
